Assay results published in patent publication US20240261333A1, “NOVEL TARGETS FOR ENHANCING ANTI-TUMOR IMMUNITY” (THE BROAD INSTITUTE, INC., priority 2021, published 2024).

Assays:
Assay in all cases: co-IP, IgG control, lysate of cells with N-FLAG B3GNT2; mass spectrometry
PRBP1 (human) = PRBP1 (human) (UniProt P26599)
C1orf68 (human) = C1orf68 (human) (UniProt Q5T750)
SAMM50 (human) = SAMM50 (human) (UniProt Q9Y512)
LSM12 (human) = LSM12 (human) (UniProt Q3MHD2)
RBM39 (human) = RBM39 (human) (UniProt Q14498)
PRRC2A (human) = PRRC2A (human) (UniProt P48634)
ARPC4 (human) = ARPC4 (human) (UniProt P59998)
PARP1 (human) = PARP1 (human) (UniProt P09874)
HUWE1 (human) = HUWE1 (human) (UniProt Q7Z6Z7)
FAU (human) = FAU (human) (UniProt P62861)
MYH11 (human) = MYH11 (human) (UniProt P35749)
HSPA8 (human) = HSPA8 (human) (UniProt P11142)
CSE1L (human) = CSE1L (human) (UniProt P55060)
ATXN2 (human) = ATXN2 (human) (UniProt Q99700)
SERBP1 (human) = biological target: T1, SERBP1 (human) (UniProt Q8NC51)
T1 sequence (looked up): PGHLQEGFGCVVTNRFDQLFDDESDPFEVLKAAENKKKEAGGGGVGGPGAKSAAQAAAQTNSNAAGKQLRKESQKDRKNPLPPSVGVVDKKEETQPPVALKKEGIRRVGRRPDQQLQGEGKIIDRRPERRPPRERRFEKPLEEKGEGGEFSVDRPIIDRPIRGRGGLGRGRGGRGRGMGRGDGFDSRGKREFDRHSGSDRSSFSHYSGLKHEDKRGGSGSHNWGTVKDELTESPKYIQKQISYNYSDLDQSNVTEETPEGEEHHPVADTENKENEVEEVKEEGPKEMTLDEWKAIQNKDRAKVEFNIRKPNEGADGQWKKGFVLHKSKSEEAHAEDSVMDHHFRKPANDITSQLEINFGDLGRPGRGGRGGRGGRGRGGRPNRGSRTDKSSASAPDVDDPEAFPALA

NUFIP2 (human) = NUFIP2 (human) (UniProt Q7Z417)
GGCT (human) = GGCT (human) (UniProt O75223)
CAT (human) = CAT (human) (UniProt P04040)
KRT6B (human) = KRT6B (human) (UniProt P04259)
RPL18 (human) = RPL18 (human) (UniProt Q07020)
G3BP1 (human) = G3BP1 (human) (UniProt Q13283)
RPL4 (human) = RPL4 (human) (UniProt P36578)
EIF5B (human) = EIF5B (human) (UniProt O60841)
KRT4 (human) = KRT4 (human) (UniProt P19013)
UBAP2L (human) = UBAP2L (human) (UniProt Q14157)
DDX5 (human) = DDX5 (human) (UniProt P17844)
PUM1 (human) = PUM1 (human) (UniProt Q14671)
HNRNPA2B1 (human) = HNRNPA2B1 (human) (UniProt P22626)
RPL10 (human) = RPL10 (human) (UniProt P27635)
RPL13 (human) = RPL13 (human) (UniProt P26373)
RPS28 (human) = RPS28 (human) (UniProt P62857)
DNAJC3 (human) = DNAJC3 (human) (UniProt Q13217)
DNAJC3 (human), sequence (Q13217 32-504 limits assumed): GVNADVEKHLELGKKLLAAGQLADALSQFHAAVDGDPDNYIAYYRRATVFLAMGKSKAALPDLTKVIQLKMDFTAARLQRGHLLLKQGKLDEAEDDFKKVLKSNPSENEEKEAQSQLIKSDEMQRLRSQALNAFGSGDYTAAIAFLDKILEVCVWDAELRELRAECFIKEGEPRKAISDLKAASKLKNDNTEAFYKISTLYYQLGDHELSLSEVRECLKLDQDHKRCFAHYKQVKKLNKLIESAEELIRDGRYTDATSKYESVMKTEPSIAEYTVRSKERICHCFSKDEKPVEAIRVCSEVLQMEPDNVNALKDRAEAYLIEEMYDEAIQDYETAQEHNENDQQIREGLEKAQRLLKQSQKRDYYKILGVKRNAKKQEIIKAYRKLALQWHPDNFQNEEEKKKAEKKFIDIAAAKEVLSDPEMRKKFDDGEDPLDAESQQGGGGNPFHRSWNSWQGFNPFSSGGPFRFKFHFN

G3BP1 (human), sequence (Q13283 2-466 limits assumed): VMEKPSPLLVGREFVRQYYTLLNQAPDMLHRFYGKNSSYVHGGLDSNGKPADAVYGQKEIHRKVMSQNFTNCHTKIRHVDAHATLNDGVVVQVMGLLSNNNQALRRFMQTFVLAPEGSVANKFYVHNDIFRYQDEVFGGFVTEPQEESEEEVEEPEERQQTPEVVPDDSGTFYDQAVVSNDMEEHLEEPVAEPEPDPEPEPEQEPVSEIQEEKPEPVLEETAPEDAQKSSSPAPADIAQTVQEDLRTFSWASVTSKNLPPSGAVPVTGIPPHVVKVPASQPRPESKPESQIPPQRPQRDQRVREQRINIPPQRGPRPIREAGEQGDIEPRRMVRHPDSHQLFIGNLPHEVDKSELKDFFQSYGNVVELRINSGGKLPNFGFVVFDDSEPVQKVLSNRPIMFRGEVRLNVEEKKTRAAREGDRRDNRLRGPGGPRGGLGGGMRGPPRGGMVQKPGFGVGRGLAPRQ
HNRNPA2B1 (human), sequence (P22626 other isoform, or with tags, fused parts or gaps limits assumed): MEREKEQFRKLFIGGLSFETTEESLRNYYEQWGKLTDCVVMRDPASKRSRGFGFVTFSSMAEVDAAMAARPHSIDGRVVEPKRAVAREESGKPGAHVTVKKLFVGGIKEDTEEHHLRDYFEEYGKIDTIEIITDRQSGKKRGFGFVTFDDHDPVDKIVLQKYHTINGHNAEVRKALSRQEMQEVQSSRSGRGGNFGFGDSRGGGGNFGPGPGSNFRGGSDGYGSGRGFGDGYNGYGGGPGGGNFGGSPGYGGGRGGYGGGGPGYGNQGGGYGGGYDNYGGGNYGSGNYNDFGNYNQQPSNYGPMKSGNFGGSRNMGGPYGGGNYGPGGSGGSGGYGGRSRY
DDX5 (human), sequence (P17844 whole entry): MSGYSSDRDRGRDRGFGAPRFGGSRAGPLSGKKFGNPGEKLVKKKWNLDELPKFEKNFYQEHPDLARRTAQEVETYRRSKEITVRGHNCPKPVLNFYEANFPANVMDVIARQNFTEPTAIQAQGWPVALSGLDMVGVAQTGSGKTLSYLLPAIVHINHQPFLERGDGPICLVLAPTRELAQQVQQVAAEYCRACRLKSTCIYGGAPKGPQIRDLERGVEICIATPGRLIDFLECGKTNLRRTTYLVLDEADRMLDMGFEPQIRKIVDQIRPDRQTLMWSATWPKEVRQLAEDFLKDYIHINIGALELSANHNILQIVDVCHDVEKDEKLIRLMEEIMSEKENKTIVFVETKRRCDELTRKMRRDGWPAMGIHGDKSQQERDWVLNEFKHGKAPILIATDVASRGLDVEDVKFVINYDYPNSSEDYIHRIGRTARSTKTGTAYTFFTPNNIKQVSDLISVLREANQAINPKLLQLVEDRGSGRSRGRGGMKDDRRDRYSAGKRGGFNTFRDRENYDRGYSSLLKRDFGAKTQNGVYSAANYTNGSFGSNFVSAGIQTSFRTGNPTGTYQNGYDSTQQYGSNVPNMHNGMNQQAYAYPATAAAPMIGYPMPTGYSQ
LSM12 (human), sequence (Q3MHD2 2-195 limits assumed): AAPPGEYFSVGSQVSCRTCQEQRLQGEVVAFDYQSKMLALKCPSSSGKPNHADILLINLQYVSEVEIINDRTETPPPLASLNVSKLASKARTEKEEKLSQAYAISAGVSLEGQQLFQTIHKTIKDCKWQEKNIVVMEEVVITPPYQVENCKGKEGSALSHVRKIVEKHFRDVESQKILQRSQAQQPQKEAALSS
C1orf68 (human), sequence (Q5T750 whole entry): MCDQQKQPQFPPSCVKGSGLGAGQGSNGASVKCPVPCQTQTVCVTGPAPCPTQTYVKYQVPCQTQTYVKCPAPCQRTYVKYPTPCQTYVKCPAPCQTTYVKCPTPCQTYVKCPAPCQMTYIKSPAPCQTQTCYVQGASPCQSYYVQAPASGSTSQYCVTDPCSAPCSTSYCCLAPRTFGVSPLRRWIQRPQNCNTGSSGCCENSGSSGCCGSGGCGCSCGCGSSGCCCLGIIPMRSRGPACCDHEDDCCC
CAT (human), sequence (P04040 2-527 limits assumed): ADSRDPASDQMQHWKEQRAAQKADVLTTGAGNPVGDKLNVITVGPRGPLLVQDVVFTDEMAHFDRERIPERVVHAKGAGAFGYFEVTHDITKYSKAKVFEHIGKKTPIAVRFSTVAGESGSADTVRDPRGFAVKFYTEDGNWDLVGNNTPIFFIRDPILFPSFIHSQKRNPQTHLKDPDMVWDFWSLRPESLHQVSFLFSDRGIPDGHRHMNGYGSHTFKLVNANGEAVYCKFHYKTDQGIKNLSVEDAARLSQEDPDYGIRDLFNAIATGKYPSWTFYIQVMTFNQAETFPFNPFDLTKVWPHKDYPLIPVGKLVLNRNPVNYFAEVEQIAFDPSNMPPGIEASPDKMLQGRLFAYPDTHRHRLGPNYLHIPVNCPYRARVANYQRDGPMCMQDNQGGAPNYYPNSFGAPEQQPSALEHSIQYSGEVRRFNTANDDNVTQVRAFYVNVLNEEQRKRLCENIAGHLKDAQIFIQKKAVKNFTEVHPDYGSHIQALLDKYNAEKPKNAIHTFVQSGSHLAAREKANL
ATXN2 (human), sequence (Q99700 whole entry): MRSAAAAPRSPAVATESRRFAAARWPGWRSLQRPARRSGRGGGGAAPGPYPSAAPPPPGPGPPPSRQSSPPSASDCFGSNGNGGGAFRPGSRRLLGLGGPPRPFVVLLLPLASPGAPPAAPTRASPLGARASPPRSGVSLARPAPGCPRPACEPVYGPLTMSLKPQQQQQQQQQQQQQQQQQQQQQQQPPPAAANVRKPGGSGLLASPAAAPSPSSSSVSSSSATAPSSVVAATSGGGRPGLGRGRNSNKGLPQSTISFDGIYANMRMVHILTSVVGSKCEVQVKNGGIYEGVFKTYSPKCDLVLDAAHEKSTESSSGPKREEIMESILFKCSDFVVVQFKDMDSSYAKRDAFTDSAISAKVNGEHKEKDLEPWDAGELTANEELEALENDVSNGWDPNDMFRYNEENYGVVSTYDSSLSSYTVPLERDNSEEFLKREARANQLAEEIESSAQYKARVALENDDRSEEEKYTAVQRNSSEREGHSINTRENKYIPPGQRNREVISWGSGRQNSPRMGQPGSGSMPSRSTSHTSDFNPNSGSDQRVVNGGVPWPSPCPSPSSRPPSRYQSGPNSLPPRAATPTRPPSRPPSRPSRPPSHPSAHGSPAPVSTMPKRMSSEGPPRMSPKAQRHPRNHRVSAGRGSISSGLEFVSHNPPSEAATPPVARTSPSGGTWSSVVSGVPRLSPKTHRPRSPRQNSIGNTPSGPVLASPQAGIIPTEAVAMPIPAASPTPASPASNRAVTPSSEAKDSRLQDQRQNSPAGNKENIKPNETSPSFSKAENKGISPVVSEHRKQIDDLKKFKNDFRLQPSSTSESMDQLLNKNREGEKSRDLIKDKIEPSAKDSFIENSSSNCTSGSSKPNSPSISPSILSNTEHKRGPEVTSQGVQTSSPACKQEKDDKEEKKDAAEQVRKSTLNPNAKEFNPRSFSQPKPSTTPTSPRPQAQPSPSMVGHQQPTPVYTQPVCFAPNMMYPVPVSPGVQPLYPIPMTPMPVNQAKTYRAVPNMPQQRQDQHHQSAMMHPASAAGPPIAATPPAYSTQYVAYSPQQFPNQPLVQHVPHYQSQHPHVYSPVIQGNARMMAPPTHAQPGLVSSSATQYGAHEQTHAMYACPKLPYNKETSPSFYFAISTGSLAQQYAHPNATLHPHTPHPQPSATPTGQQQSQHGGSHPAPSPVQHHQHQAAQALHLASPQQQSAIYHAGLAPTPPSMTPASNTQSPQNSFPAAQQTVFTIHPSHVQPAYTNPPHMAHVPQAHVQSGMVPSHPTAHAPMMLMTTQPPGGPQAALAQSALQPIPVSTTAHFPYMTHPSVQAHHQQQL
SAMM50 (human), sequence (Q9Y512 whole entry): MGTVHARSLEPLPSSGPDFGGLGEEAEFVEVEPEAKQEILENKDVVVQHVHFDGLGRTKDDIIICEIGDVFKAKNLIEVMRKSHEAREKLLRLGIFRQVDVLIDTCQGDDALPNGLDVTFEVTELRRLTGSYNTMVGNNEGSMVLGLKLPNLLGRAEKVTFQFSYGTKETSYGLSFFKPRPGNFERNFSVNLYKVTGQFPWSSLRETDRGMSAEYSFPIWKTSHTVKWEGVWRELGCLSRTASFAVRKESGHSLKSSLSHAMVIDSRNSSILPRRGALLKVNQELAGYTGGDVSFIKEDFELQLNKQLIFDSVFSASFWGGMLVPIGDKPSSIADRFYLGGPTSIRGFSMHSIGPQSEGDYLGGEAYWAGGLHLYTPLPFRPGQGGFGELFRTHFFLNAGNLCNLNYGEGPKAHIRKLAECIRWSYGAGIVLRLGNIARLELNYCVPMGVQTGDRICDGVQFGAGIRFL
GGCT (human), sequence (O75223 whole entry): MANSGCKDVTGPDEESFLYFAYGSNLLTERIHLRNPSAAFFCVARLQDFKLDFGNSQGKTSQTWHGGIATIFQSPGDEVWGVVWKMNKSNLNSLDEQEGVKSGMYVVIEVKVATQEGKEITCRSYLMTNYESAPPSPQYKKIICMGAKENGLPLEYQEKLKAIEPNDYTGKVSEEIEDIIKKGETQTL

IgG control (Millipore Sigma 12-371) (antibody)
co-IP mass spectrometry count (PRBP1 (human)): 7 | co-IP mass spectrometry count (C1orf68 (human)): 0 | co-IP mass spectrometry count (SAMM50 (human)): 0 | co-IP mass spectrometry count (LSM12 (human)): 2 | co-IP mass spectrometry count (RBM39 (human)): 5 | co-IP mass spectrometry count (PRRC2A (human)): 3 | co-IP mass spectrometry count (ARPC4 (human)): 0 | co-IP mass spectrometry count (PARP1 (human)): 0 | co-IP mass spectrometry count (HUWE1 (human)): 0 | co-IP mass spectrometry count (FAU (human)): 6 | co-IP mass spectrometry count (MYH11 (human)): 3 | co-IP mass spectrometry count (HSPA8 (human)): 16 | co-IP mass spectrometry count (CSE1L (human)): 0 | co-IP mass spectrometry count (ATXN2 (human)): 3 | co-IP mass spectrometry count (SERBP1 (human)): 4 | co-IP mass spectrometry count (NUFIP2 (human)): 3 | co-IP mass spectrometry count (GGCT (human)): 0 | co-IP mass spectrometry count (CAT (human)): 2 | co-IP mass spectrometry count (KRT6B (human)): 316 | co-IP mass spectrometry count (RPL18 (human)): 5 | co-IP mass spectrometry count (G3BP1 (human)): 29 | co-IP mass spectrometry count (RPL4 (human)): 11 | co-IP mass spectrometry count (EIF5B (human)): 0 | co-IP mass spectrometry count (KRT4 (human)): 21 | co-IP mass spectrometry count (UBAP2L (human)): 20 | co-IP mass spectrometry count (DDX5 (human)): 18 | co-IP mass spectrometry count (PUM1 (human)): 0 | co-IP mass spectrometry count (HNRNPA2B1 (human)): 4 | co-IP mass spectrometry count (RPL10 (human)): 3 | co-IP mass spectrometry count (RPL13 (human)): 6 | co-IP mass spectrometry count (RPS28 (human)): 0 | co-IP mass spectrometry count (DNAJC3 (human)): 0
